{"source": "paper PMC4896396", "about": "(Journal of the American Chemical Society, 2016)", "proteins": {"B1": {"name": "full-length rat phenylalanine hydroxylase (wt-PheH) (enzyme, UniProt P04176 1-453, looked up)", "chain": "MAAVVLENGVLSRKLSDFGQETSYIEDNSNQNGAISLIFSLKEEVGALAKVLRLFEENDINLTHIESRPSRLNKDEYEFFTYLDKRTKPVLGSIIKSLRNDIGATVHELSRDKEKNTVPWFPRTIQELDRFANQILSYGAELDADHPGFKDPVYRARRKQFADIAYNYRHGQPIPRVEYTEEEKQTWGTVFRTLKALYKTHACYEHNHIFPLLEKYCGFREDNIPQLEDVSQFLQTCTGFRLRPVAGLLSSRDFLGGLAFRVFHCTQYIRHGSKPMYTPEPDICHELLGHVPLFSDRSFAQFSQEIGLASLGAPDEYIEKLATIYWFTVEFGLCKEGDSIKAYGAGLLSSFGELQYCLSDKPKLLPLELEKTACQEYSVTEFQPLYYVAESFSDAKEKVRTFAATIPRPFSVRYDPYTQRVEVLDNTQQLKILADSINSEVGILCNALQKIKS"}}, "molecular_target": "the molecule itself", "test": "SEC-SAXS", "data": [{"protein": "B1", "values": [{"measurement": "stoichiometry N", "value": 4}]}]}
